Target: T1, human immunoglobulin-like transcript 3 (ILT3) (human, UniProt Q8NHJ6 22-448)
T1 construct: whole, on cells; also called LILRB4; LIR5
Assay: receptor occupancy in blood samples of trial participants dosed in vivo (Q3W)

binding result: binds
B1: Humanized anti-ILT3 mAb (52B8 VH1 M64V/VL5 N34Q) IgG4 S228P/Kappa (antibody, V domains shown)
VH: EVQLVESGGGLVQPGGSLRLSCAASGFTFSNYGMSWVRQAPGKGLEWVATISGGGDYTNYPDSVRGRFTISRDNAKNSLYLQMNSLRAEDTAVYYCGRRLWFRSLYYAMDYWGQGTLVTVSS
VL: DIQLTQSPSSLSASVGDRVTITCRASEKVDSFGQSFMHWYQQKPGKAPKLLIYLTSNLDSGVPSRFSGSGSGTDFTLTISSLQPEDFATYYCQQNNEDPYTFGQGTKLEIKR
notes: also called mAb number 46; mAb No. 46
